Laboratory results from US20180118786A1 (ECOLE POLYTECHNIQUE FEDERALE DE LAUSANNE EPFL, published 2018).
Where two headings read alike, the source gives them in different places. Each block holds one binder with its values, some of them ahead of it. Starred links: 1 amine or outer side, 2 acyl side, 3 side chain; linkers in the order of their positions; H or OH if unused. Positions of bridges follow the written chain, without caps; N, C: chain ends. Non-standard residues stand in square brackets, D forms with d. TATA = O=C(CC[*:1])N1CN(C(=O)CC[*:2])CN(C(=O)CC[*:3])C1

How the values were obtained:
[1] = molecular target: T1, human β-FXIIa (HFXIIAB; Molecular Innovations) (human, UniProt P00748 354-362; P00748 373-615, limits assumed); test: protease inhibition assay
T1 construct: domain: catalytic domain; Bought; also called human b-FXIIa; human FXIIa
T1 sequence (P00748 373-615 limits assumed, one chain of several): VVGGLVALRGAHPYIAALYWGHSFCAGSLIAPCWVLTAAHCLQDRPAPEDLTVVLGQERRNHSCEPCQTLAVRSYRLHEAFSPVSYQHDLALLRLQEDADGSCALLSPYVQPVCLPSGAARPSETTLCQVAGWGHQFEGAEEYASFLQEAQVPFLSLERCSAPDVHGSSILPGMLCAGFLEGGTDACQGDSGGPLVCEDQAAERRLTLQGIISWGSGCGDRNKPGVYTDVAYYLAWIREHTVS

trypsin = trypsin (human, UniProt P07477 24-247); test: protease inhibition assay
factor XIa = molecular target: T2, factor XIa (human, UniProt P03951 19-625); test: protease inhibition assay
T2 construct: also called FXIa

plasmin = plasmin (human, UniProt P00747 97-810, limits assumed); test: protease inhibition assay
Sequence of plasmin (P00747 97-810 limits assumed): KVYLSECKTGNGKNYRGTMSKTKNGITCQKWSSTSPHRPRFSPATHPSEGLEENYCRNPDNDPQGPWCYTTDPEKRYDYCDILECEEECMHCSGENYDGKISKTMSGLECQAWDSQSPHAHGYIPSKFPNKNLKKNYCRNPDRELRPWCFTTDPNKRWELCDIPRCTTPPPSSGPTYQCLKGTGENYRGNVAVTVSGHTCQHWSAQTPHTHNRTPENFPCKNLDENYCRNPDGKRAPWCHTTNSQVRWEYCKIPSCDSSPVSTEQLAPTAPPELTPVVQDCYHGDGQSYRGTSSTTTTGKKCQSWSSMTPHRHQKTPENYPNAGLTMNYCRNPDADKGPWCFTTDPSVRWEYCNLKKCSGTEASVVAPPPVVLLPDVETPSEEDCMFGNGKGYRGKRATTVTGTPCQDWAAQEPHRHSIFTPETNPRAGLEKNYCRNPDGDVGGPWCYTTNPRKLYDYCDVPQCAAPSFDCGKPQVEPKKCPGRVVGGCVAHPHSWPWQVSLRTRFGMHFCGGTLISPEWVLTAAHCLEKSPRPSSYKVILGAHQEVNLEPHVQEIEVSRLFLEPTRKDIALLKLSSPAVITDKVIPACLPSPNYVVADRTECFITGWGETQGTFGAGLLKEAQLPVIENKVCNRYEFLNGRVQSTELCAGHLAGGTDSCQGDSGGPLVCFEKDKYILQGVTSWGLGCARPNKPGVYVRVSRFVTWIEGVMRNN

mouse FXIIa [2] = molecular target: T3, mouse FXIIa (mouse, UniProt Q80YC5 20-597, limits assumed); test: protease inhibition assay, fluorogenic substrate
T3 construct: also called mouse α-FXIIa (MFXIIA; Molecular Innovations)
T3 sequence (looked up): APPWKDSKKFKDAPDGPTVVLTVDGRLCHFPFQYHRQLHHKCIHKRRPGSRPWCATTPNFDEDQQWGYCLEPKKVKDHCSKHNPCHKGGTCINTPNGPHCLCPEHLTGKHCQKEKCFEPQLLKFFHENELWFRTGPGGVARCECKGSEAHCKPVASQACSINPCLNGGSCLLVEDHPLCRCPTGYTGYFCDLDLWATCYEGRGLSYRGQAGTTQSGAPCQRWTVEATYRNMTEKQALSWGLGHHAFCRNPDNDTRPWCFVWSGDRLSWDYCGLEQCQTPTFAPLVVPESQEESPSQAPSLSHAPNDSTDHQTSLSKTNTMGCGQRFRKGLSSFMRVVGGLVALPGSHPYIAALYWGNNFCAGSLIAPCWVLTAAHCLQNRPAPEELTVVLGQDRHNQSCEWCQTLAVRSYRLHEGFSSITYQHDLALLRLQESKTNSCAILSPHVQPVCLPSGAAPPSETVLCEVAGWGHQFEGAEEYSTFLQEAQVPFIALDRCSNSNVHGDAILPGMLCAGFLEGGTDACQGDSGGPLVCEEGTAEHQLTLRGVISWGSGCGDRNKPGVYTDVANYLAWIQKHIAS

plasma kallikrein = molecular target: T4, plasma kallikrein (human, UniProt P03952 20-638); test: protease inhibition assay, specificity testing
T4 construct: also called PK
T4 sequence (P03952 20-638 limits assumed): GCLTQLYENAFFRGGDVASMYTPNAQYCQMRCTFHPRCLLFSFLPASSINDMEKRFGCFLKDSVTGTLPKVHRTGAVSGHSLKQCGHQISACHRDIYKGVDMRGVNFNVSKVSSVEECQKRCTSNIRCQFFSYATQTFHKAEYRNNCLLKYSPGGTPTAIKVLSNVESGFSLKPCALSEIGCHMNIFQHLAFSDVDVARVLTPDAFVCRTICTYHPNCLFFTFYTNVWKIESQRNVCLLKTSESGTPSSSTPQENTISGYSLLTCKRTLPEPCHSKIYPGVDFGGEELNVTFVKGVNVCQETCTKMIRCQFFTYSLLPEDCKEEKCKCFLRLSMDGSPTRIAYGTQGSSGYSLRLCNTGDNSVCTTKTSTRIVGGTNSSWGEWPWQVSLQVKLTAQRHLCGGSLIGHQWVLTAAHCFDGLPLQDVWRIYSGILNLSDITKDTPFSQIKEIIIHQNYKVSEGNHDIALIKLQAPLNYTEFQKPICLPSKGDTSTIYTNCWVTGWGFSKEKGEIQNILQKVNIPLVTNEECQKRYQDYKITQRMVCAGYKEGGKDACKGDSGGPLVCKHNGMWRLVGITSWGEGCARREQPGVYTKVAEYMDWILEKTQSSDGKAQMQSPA

mouse FXIIa [3] = molecular target: T3, mouse FXIIa; test: protease inhibition assay
[4] = molecular target: T1, human β-FXIIa (HFXIIAB; Molecular …); test: protease inhibition assay; remark: listed apart in the source

Ki [1]: 18 nM
B1: JS7m (FXII618, Arg1 to D-Arg-D-Ser) (peptide)
peptide: H-[dR][dS]CFRLPCRQLRCR-NH2
modifications: linker 3-8-13 via TATA
SMILES: CC(C)C[C@@H]1NC(=O)[C@H](CCC(N)=O)NC(=O)[C@H](CCCNC(=N)N)NC(=O)[C@@H]2CSCCC(=O)N3CN(CN(C3)C(=O)CCSC[C@H](NC(=O)[C@@H](CO)NC(=O)[C@H](N)CCCNC(=N)N)C(=O)N[C@@H](Cc3ccccc3)C(=O)N[C@@H](CCCNC(=N)N)C(=O)N[C@@H](CC(C)C)C(=O)N3CCC[C@H]3C(=O)N2)C(=O)CCSC[C@@H](C(=O)N[C@@H](CCCNC(=N)N)C(N)=O)NC(=O)[C@H](CCCNC(=N)N)NC1=O
notes: also called Arg1→D-Arg-D-Ser (rs)

Ki (trypsin): 7 nM | Ki (factor XIa): 12500 nM | Ki (plasmin): 5000 nM
B2: corn trypsin inhibitor (other, UniProt P01088 29-155, looked up)
chain: SAGTSCVPGWAIPHNPLPSCRWYVTSRTCGIGPRLPWPELKRRCCRELADIPAYCRCTALSILMDGAIPPGPDAQLEGRLEDLPGCPREVQRGFAATLVTEAECNLATISGVAECPWILGGGTMPSK
notes: also called CTI

Ki (trypsin): 5000 nM | Ki (mouse FXIIa [2]): 252 nM | binding result (plasma kallikrein): binds
B3: FXII618 (peptide)
peptide: H-RCFRLPCRQLRCR-NH2
modifications: linker 2-7-12 via TATA
notes: Bicyclic; free N-terminus; also called peptide 1; bicyclic peptide 1

Ki (mouse FXIIa [3]): 80 nM | Ki [4]: 21.6 nM
B4: JS17m (FXII618, Arg8 to His) (peptide)
peptide: H-RCFRLPCHQLRCR-NH2
modifications: linker 2-7-12 via TATA
SMILES: CC(C)C[C@@H]1NC(=O)[C@H](CCC(N)=O)NC(=O)[C@H](Cc2c[nH]cn2)NC(=O)[C@@H]2CSCCC(=O)N3CN(CN(C3)C(=O)CCSC[C@H](NC(=O)[C@@H](N)CCCNC(=N)N)C(=O)N[C@@H](Cc3ccccc3)C(=O)N[C@@H](CCCNC(=N)N)C(=O)N[C@@H](CC(C)C)C(=O)N3CCC[C@H]3C(=O)N2)C(=O)CCSC[C@@H](C(=O)N[C@@H](CCCNC(=N)N)C(N)=O)NC(=O)[C@H](CCCNC(=N)N)NC1=O
notes: also called Arg8→His (H)
